Source: patent publication US10363214B2, “Method for treating atrophic age related macular degeneration” (Allergan, Inc., priority 2008, dated 2019)

How the values were obtained:
[1] = 1.25 to 2.5 mg aqueous bevacizumab into the vitreous cavity; animal and human studies; cited from earlier work
ARPE-19 cells = assay: ARPE-19 cell viability (MTT) assay with polysorbate 80; assay type: cell-based
Method: An experiment was carried out to examine the toxicity of a polysorbate retinal penetrant enhancer to retinal pigment epithelial (“RPE”) cells. Thus, ARPE-19 cells (see Dunn K. et al., ARPE-19, a human retinal pigment epithelial cell line with differentiated properties, Exp Eye Res. 1996 Feb;62(2):155-69) were incubated in vitro in concentrations of polysorbate 80 ranging from 0% to 0.10% w/w and a cell viability assay was performed.
The protocol for this in vitro experiment was as follows: ARPE-19 cells (passage 11 to 23) were seeded the day prior to experimentation in 24 well-plates at 125.000 cells/well in DMEM:F12 medium supplemented with 10% FBS. Time course and dose response were simultaneously performed on ARPE-19 cells. Parameters of incubating solutions such as pH, osmolarity were measured for every concentration. Times of incubation were 24 h, 48 h, 72 h. One negative (non-treated) and one positive control (5 mM H2O2) were included. Non-treated condition was cell culture medium supplemented with serum. 5 mM H2O2 was prepared from 3% H2O2 stock solution (875 mM). Concentrations applied to cells were determined considering several parameters, such as • (a) commonly used concentration in formulation. • (b) limiting concentration to compound solubility. • (c) limiting concentration to applicable viscosity, osmolarity and pH values. In a first approach, the concentrations covered a wide range (Exp.1). After preliminary results, a second set of experiments (Exp.2 to 4) determined more accurately compound concentrations leading to inhibition of 50% of cell viability, based on cell viability assay and morphological aspect. […] Results from MTT assay were expressed as a percentage of cell viability calculated as follows: % cell viability=ODtest/ODcontrol×100. […] Gap concentration bringing to 50% cell viability was therefore determined. Morphological appearance was analyzed by semi-quantitative scoring ranging from 5 to 1, from normal to lethal phenotype respectively.

wet AMD eye = assay: Monthly intravitreal injections in wet AMD eye of patient (paper case examples); assay type: in vivo, human
Description: A person has age-related macular degeneration and cataracts in both eyes. […] The patient can complain of blurry vision and metamorphopsia in the right eye and examination can reveal visual acuity of 20/400 right eye, 20/32 left eye. Retinal examination can show subfoveal choroidal neovascularization (CNV) (right eye wet AMD) approximately 1 disc area in size with surrounding hemorrhage and edema in the right eye. The fellow left eye can show high-risk features for developing wet AMD such as soft, amorphic appearing drusen that included the fovea but no signs of choroidal neovascularization and can be confirmed by fluorescein angiography (left eye dry AMD).
A person can wake up with blurry vision in the left eye. They can have a history of glaucoma, s/p cataract removal with IOLs (intraocular lenses), and dry AMD in both eyes and can be taking Alphagan P eye drops. The patient's ophthalmologist can examine them and they can be diagnosed with left eye wet AMD and sent immediately to a retinal specialist. The vision can be 20/25 in the right eye and 20/200 in the left eye. Retinal examination can show dry changes in the right eye macula but high risk features such as large drusen and numerous pigmentary changes in the subfoveal region. The left eye macula can show a subfoveal CNV approximately 2 disc areas in size with surrounding macular edema and intraretinal hemorrhages. Fluorescein angiography can confirm the presence of left eye CNV predominantly classic in appearance. […] Since the patient was at high risk for developing CNV in their right eye, and the vision in the left eye may not appreciably improve over the 3 month period, they can receive an intravitrea injection into the right eye of 50 ul comprising 4.8 mg of ranibizumab incorporated into PLGA microspheres, to prophylax against the development of CNV in the right eye. Polysorbate 20 PLGA microspheres with an in vitro release rate of 5 ug/day can also be placed in the formulation to enhance retinal permeability. The microspheres can be placed in a partially cross-linked hyaluronic acid (HA) at a HA concentration of 2.1%. Such a cross-linked HA can be obtained from Allergan Medical (Irvine, Calif.) under the brand names Juvederm Ultra Plus, Juvederm 30, Captique, and Voluma.

## bevacizumab
[1]
  intraocular toxicity: without significant intraocular toxicity

## polysorbate 80
ARPE-19 cells; ARPE-19 cells, 24, 48 and 72 h incubation, also printed as 0.6 mg/ml, FIG. 1
  polysorbate 80 concentrations associated with declining RPE cell viability: over 0.06%
ARPE-19 cells; ARPE-19 cells, 24, 48 and 72 h incubation, also printed as 0.9 mg/ml, FIG. 1
  polysorbate 80 concentrations associated with cell viabilities of less than 50%: > 0.09%
ARPE-19 cells; assuming a vitreous volume of 4 ml in a human eye
  total maximum weight of polysorbate in the vitreous at one time: ≤ 3.6 mg

B1: ranibizumab (antibody, chains of the INN, looked up, V domains shown)
VH: EVQLVESGGGLVQPGGSLRLSCAASGYDFTHYGMNWVRQAPGKGLEWVGWINTYTGEPTYAADFKRRFTFSLDTSKSTAYLQMNSLRAEDTAVYYCAKYPYYYGTSHWYFDVWGQGTLVTVSS
VL: DIQLTQSPSSLSASVGDRVTITCSASQDISNYLNWYQQKPGKAPKVLIYFTSSLHSGVPSRFSGSGSGTDFTLTISSLQPEDFATYYCQQYSTVPWTFGQGTKVEIK
modifications: Fab
Wet AMD eye; Example 1, within 4 months
  edema and hemorrhage, right wet AMD eye: resolution of the edema and hemorrhage
Wet AMD eye; Example 1, within 4 months, baseline 20/400
  visual acuity, right wet AMD eye: 20/125
Wet AMD eye; Example 3, 3 month period, baseline 20/200
  left eye visual acuity (wet AMD eye): 20/100
Wet AMD eye; Example 3, over a 3 month period
  retinal edema, left wet AMD eye: resolution of the retinal edema
